Percent decrease of the amount co-immunoprecipitated after BKA, against CATR data for 2 substances are collected here from paper PMC7455186.

The assay concerns the target FLAG-Aac2 (S. cerevisiae) (UniProt P18239). Kind of assay: co-IP.
UniProt P18239, sequence (P18239 whole entry): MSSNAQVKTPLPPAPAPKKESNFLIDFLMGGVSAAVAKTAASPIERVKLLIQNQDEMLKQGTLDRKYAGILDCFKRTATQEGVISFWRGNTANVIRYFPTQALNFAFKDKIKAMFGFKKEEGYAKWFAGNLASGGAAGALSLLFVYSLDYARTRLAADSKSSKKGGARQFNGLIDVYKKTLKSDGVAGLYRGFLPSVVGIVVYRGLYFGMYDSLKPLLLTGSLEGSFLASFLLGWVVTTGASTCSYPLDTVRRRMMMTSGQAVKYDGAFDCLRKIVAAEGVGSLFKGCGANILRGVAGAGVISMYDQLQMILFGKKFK

“respiratory complex III (from UniProt P07256 27-457; P07257 17-368; P08067 31-215; P00127 1-147)”: the percent decrease of the amount co-immunoprecipitated after BKA, against CATR turned out to be 25%.
Substance “respiratory complex IV (from UniProt P00401 1-534; P04037 26-155)” showed a percent decrease of the amount co-immunoprecipitated after BKA, against CATR of 50%.
